Numbering of substitutions follows the chain as printed. Names and notes keep the numbering of the source.
T1: mouse OX40 expressed on ExpiCHO-S cells (mouse, UniProt P47741 20-272)
T1 construct: full-length entry; also called OX40mm; wild-type mouse OX40
T1 sequence: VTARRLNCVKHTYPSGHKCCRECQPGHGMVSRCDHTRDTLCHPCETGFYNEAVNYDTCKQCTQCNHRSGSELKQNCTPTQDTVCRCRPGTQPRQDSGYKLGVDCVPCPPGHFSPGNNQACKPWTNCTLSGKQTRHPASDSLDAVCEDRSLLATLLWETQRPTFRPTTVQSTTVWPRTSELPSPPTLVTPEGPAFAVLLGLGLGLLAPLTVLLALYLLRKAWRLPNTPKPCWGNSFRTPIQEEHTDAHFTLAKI

T2: human OX40 with mouse CRD2 (human with mouse CRD2, UniProt P43489 29-277)
T2 construct: on ExpiCHO-S cells; also called OX40-CRD2mm; Shuffle 2
T2 chain: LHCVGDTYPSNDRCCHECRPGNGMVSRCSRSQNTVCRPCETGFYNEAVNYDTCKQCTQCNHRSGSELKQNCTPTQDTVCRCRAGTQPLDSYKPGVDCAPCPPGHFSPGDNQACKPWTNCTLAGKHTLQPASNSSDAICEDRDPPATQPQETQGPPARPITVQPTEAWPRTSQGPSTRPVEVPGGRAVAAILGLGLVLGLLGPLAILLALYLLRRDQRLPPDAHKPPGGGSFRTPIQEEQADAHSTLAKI

T3: human OX40 with mouse CRD4 (human with mouse CRD4, UniProt P43489 29-277)
T3 construct: on ExpiCHO-S cells; also called OX40-CRD4mm; Shuffle 4
T3 chain: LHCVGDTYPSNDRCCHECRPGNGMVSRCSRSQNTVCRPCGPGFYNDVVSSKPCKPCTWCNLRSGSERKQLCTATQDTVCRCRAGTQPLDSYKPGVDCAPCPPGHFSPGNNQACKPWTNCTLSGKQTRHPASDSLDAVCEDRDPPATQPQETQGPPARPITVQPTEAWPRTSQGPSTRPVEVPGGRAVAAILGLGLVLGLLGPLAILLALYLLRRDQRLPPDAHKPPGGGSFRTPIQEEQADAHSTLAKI

T4: human OX40 expressed on cells (human, UniProt P43489 29-277)
T4 construct: also called CD134; TNFRSF4
T4 sequence: T3 chain with N109D, S122A, Q125H, R127L, H128Q, D132N, L134S, V137I

T5: cynomolgus monkey OX40 expressed on HEK293F cells (cynomolgus monkey (Macaca fascicularis), UniProt P43489 29-277 (human entry))
T5 construct: full-length entry
T5 chain: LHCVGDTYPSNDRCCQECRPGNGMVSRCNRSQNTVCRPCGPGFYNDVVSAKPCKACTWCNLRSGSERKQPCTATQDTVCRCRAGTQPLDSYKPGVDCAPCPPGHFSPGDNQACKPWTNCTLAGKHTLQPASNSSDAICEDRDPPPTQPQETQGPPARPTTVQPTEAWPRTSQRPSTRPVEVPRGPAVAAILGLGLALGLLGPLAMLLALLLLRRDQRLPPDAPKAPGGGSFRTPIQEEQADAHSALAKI

T6: human OX40 with mouse CRD1 (human with mouse CRD1, UniProt P43489 29-277)
T6 construct: on ExpiCHO-S cells; also called OX40-CRD1mm; Shuffle 1
T6 chain: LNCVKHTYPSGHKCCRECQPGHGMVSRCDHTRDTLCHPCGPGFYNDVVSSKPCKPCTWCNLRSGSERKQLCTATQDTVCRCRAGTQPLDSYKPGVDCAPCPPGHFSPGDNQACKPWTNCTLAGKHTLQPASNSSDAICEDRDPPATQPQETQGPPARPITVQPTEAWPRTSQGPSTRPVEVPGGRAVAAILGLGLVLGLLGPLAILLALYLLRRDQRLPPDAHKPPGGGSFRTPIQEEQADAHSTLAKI

T7: human OX40 with mouse CRD3 (human with mouse CRD3, UniProt P43489 29-277)
T7 construct: on ExpiCHO-S cells; also called OX40-CRD3mm; Shuffle 3
T7 chain: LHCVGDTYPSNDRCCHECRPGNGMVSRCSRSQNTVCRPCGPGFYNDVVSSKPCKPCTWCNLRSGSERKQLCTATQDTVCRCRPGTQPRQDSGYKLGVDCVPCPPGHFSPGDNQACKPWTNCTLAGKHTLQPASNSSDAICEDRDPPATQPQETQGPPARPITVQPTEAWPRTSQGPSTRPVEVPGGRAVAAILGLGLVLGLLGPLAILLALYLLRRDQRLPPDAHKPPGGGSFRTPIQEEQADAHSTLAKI

B1: IgG1-CD134-007-RR (antibody)
heavy: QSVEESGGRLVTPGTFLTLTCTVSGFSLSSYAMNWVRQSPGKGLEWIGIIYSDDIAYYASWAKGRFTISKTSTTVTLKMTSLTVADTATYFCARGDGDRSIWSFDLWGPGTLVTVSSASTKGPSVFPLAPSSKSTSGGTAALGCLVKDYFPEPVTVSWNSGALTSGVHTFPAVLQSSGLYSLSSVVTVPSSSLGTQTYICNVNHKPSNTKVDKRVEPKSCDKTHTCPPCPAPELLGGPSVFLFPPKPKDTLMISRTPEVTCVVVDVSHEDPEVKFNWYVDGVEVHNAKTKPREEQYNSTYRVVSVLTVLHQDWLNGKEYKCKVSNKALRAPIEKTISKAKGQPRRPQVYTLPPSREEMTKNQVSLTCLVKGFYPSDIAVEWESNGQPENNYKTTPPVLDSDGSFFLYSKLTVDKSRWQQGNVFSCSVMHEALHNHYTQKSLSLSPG
light: AQVLTQTPSPVSAAVGGTVTISCQSSESVWNNNWLAWYQQKPGQPPNLLIYEASTLASGVSSRFKGSGSGTQFTLTVSEVQSDDAATYYCQGGYYDSSPIWTFGGGTEVVVKRTVAAPSVFIFPPSDEQLKSGTASVVCLLNNFYPREAKVQWKVDNALQSGNSQESVTEQDSKDSTYSLSSTLTLSKADYEKHKVYACEVTHQGLSSPVTKSFNRGEC
notes: non-humanized 007 variable regions; also called IgG1-CD134-007-P329R-E345R
B2: IgG1-CD134-012-RR-K409R (antibody)
heavy: QSLEESGGRLVTPGTPLTLICTVSGIDLSSGAMGWVRQAPGKGLEYIGYIYTGSGTTSYASWVNGRFTISMTSTTVDLKITSPTTEDTATYFCARDAASSYWGHFTLWGQGTLVTVSSASTKGPSVFPLAPSSKSTSGGTAALGCLVKDYFPEPVTVSWNSGALTSGVHTFPAVLQSSGLYSLSSVVTVPSSSLGTQTYICNVNHKPSNTKVDKRVEPKSCDKTHTCPPCPAPELLGGPSVFLFPPKPKDTLMISRTPEVTCVVVDVSHEDPEVKFNWYVDGVEVHNAKTKPREEQYNSTYRVVSVLTVLHQDWLNGKEYKCKVSNKALRAPIEKTISKAKGQPRRPQVYTLPPSREEMTKNQVSLTCLVKGFYPSDIAVEWESNGQPENNYKTTPPVLDSDGSFFLYSRLTVDKSRWQQGNVFSCSVMHEALHNHYTQKSLSLSPG
light: DIVMTQTPASVEAAVGGTVTIKCQASENIYSSLAWYQQKPGQPPKLLIYRTSTLASGVPSRFKGSGSGTQFTLTISDLESDDAATYYCQSYYHNSGGGYDYGFGGGTEVVAKRTVAAPSVFIFPPSDEQLKSGTASVVCLLNNFYPREAKVQWKVDNALQSGNSQESVTEQDSKDSTYSLSSTLTLSKADYEKHKVYACEVTHQGLSSPVTKSFNRGEC
notes: also called IgG1-CD134-012-P329R-E345R-K409R

Experiments:
[1] = target: T1, mouse OX40 expressed on ExpiCHO-S cells; test: flow cytometry, transfected ExpiCHO-S cells, gMFI (PE)
[2] = target: T2, human OX40 with mouse CRD2; test: as above
[3] = target: T3, human OX40 with mouse CRD4; test: as above
Description: (§1) The four shuffle constructs, as well as wild-type human and mouse OX40 were transiently expressed on ExpiCHO-S cells using the ExpiFectamine™ CHO Transfection Kit (ThermoFisher, cat. no. A29131), according to the manufacturer's protocol. […] Next, cells were washed twice in FACS buffer 1, were resuspended in a 30 μL solution of viability marker ToPro-3 (Invitrogen, cat. no. T3605, diluted 1:10,000) in FACS buffer 1 supplemented with 2 mM EDTA, and were analyzed on an iQue Screener Plus (Intellicyt Corporation, USA). Data were analyzed using FlowJo software and visualized using GraphPad Prism.

[4] = target: T4, human OX40 expressed on cells; test: flow cytometry, OX40-transfected HEK293F cells, gMFI (PE)
Description: (§2) Transfected cells were seeded in 96-well plates (30,000 cells/well; ThermoFisher, cat. no. 163320) for sequential incubations, with washing steps in between using fluorescence-activated cell sorting (FACS) buffer 1 (phosphate buffered saline [PBS; Lonza, cat. no. BE17-517Q] supplemented with 0.1% bovine serum albumin [BSA; Roche, cat. no. 10735086001] and 0.02% sodium azide [NaN₃; Bio-World, cat. no. 41920044-3]) supplemented with 2 mM ethylenediaminetetraacetic acid (EDTA; Sigma-Aldrich, cat. no. 03690). […] Cells were then washed using EDTA-supplemented FACS buffer 1, resuspended in a 30 μL solution of viability marker ToPro-3 (Invitrogen, cat. no. T3605, diluted 1:10,000) in EDTA-supplemented FACS buffer 1, and subsequently analyzed on an iQue® 3 flow cytometer (Satorius). Data were analyzed using FlowJo software and were visualized using GraphPad Prism.

[5] = target: T5, cynomolgus monkey OX40 expressed on …; test: as above
Description: as §2

[6] = target: T6, human OX40 with mouse CRD1; test: flow cytometry, transfected ExpiCHO-S cells, MFI at 5 µg/mL as % of IgG1-CD134-A4453
Description: as §1

[7] = target: T7, human OX40 with mouse CRD3; test: as above
Description: as §1

[8] = target: T2, human OX40 with mouse CRD2; test: as above
Description: as §1

| Binder | binding result [1] | binding result [2] | binding result [3] | EC50 (read off the curve) [4] [µg/mL] | EC50 (read off the curve) [5] [µg/mL] | binding result [6] | binding result [7] | binding result [8] |
| --- | --- | --- | --- | --- | --- | --- | --- | --- |
| B1 | no binding (tested: 50 µg/mL) | no binding (tested: 50 µg/mL) | binds | ~0.05 | ~0.04 | binds | binds | – |
| B2 | no binding (tested: 50 µg/mL) | – | binds | ~0.05 | ~0.06 | – | binds | binds |
